In US20090186824A1:
Where no end group is shown, it is not given here.

Biological target: dipeptidyl peptidase IV (DPPIV) in plasma of ICR mouse blood (mouse), P28843
Assay: cell-based or functional assay

Sequence of dipeptidyl peptidase IV (DPPIV) in plasma of ICR mouse blood (mouse), P28843 (P28843 37-760 limits assumed): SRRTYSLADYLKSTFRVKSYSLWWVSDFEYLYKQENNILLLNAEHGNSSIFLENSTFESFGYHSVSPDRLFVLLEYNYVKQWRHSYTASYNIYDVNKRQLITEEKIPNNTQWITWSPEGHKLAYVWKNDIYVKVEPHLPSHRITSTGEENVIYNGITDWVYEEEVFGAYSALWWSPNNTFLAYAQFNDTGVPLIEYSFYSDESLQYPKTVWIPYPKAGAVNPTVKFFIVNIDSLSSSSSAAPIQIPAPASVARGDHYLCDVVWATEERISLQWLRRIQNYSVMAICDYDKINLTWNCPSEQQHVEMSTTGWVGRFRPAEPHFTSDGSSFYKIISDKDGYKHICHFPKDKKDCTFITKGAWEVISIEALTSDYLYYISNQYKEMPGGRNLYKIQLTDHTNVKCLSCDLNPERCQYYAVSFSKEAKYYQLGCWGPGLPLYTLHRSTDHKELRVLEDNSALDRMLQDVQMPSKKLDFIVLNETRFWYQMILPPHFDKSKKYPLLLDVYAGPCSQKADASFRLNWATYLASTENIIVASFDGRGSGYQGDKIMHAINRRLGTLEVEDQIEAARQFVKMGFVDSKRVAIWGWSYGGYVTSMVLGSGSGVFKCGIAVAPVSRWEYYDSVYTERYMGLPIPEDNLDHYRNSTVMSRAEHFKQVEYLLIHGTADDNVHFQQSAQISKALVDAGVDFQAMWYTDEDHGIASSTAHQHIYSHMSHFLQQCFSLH

% DPPIV Activity (Saline) (% relative to saline control): 51
Binder: RIVPA-OH [SEQ ID NO 10]
